Target: T1, 6xHis-PBL34 (Arabidopsis thaliana, UniProt Q9LFP7 1-493)
T1 construct: also called 6x His-tagged PBL34 fusion protein; source: E. coli BL21(DE3)-VR2-pACYC-LamP, purified (HisPur cobalt resin); not shown: 6xHis, N-terminal, kept
T1 sequence (looked up): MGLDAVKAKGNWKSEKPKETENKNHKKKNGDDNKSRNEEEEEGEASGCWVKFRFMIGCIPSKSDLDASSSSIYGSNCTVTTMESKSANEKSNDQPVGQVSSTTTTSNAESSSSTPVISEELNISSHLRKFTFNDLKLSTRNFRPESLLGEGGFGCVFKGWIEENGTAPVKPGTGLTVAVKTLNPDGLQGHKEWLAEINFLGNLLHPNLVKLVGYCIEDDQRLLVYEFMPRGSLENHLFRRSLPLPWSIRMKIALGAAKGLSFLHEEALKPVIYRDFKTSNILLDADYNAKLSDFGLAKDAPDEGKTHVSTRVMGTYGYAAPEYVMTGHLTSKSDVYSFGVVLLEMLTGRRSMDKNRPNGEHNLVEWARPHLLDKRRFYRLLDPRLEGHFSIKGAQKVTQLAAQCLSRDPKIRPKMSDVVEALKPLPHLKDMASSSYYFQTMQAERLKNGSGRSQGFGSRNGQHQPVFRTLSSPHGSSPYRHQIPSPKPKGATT
Assay: pull-down; in vitro pulldown with amylose beads; MBP fusion protein as bait, 6xHis-PBL34 detected by Western blot
Conditions: both partners purified

binding result: binds
B1: 6xHis-MBP-BRX (natural protein, Arabidopsis thaliana, UniProt Q17TI5 1-344, looked up)
chain: MFSCIACTKADGGEEVEHGARGGTTPNTKEAVKSLTIQIKDMALKFSGAYKQCKPCTGSSSSPLKKGHRSFPDYDNASEGVPYPFMGGSAGSTPAWDFTNSSHHPAGRLESKFTSIYGNDRESISAQSCDVVLDDDGPKEWMAQVEPGVHITFASLPTGGNDLKRIRFSREMFDKWQAQRWWGENYDKIVELYNVQRFNRQALQTPARSDDQSQRDSTYSKMDSARESKDWTPRHNFRPPGSVPHHFYGGSSNYGPGSYHGGPPMDAARTTTSSRDDPPSMSNASEMQAEWIEEDEPGVYITIRQLSDGTRELRRVRFSRERFGEVHAKTWWEQNRERIQTQYL
notes: source: E. coli BL21(DE3) Rosetta pLysS, purified (HisPur cobalt resin); not shown: MBP, N-terminal, kept

Source: publication PMC9879999, “A phosphoinositide hub connects CLE peptide signaling and polar auxin efflux regulation” (Nature Communications, 2023)
